Assay results reported in doi:10.1101/2021.05.31.446396 (bioRxiv, 2021).

Target: the molecule itself
Test: SAXS

B1: EccCb1 enzyme, full length (Met1-Glu591), M. tuberculosis ESX-1 (enzyme)
chain: MTAEPEVRTLREVVLDQLGTAESRAYKMWLPPLTNPVPLNELIARDRRQPLRFALGIMDEPRRHLQDVWGVDVSGAGGNIGIGGAPQTGKSTLLQTMVMSAAATHSPRNVQFYCIDLGGGGLIYLENLPHVGGVANRSEPDKVNRVVAEMQAVMRQRETTFKEHRVGSIGMYRQLRDDPSQPVASDPYGDVFLIIDGWPGFVGEFPDLEGQVQDLAAQGLAFGVHVIISTPRWTELKSRVRDYLGTKIEFRLGDVNETQIDRITREIPANRPGRAVSMEKHHLMIGVPRFDGVHSADNLVEAITAGVTQIASQHTEQAPPVRVLPERIHLHELDPNPPGPESDYRTRWEIPIGLRETDLTPAHCHMHTNPHLLIFGAAKSGKTTIAHAIARAICARNSPQQVRFMLADYRSGLLDAVPDTHLLGAGAINRNSASLDEAVQALAVNLKKRLPPTDLTTAQLRSRSWWSGFDVVLLVDDWHMIVGAAGGMPPMAPLAPLLPAAADIGLHIIVTCQMSQAYKATMDKFVGAAFGSGAPTMFLSGEKQEFPSSEFKVKRRPPGQAFLVSPDGKEVIQAPYIEPPEEVFAAPPSAG
stoichiometry N: 12
